Molecular target: MT-100
Test: BLI

B1: extracellular domain of human Tie2 fused with Fc (hTie2-ECD-Fc) (Fc fusion)
chain: AMDLILINSLPLVSDAETSLTCIASGWRPHEPITIGRDFEALMNQHQDPLEVTQDVTREWAKKVVWKREKASKINGAYFCEGRVRGEAIRIRTMKMRQQASFLPATLTMTVDKGDNVNISFKKVLIKEEDAVIYKNGSFIHSVPRHEVPDILEVHLPHAQPQDAGVYSARYIGGNLFTSAFTRLIVRRCEAQKWGPECNHLCTACMNNGVCHEDTGECICPPGFMGRTCEKACELHTFGRTCKERCSGQEGCKSYVFCLPDPYGCSCATGWKGLQCNEACHPGFYGPDCKLRCSCNNGEMCDRFQGCLCSPGWQGLQCEREGIQRMTPKIVDLPDHIEVNSGKFNPICKASGWPLPTNEEMTLVKPDGTVLHPKDFNHTDHFSVAIFTIHRILPPDSGVWVCSVNTVAGMVEKPFNISVKVLPKPLNAPNVIDTGHNFAVINISSEPYFGDGPIKSKKLLYKPVNHYEAWQHIQVTNEIVTLNYLEPRTEYELCVQLVRRGEGGEGHPGPVRRFTTASIGLPPPRGLNLLPKSQTTLNLTWQPIFPSSEDDFYVEVERRSVQKSDQQNIKVPGNLTSVLLNNLHPREQYVVRARVNTKAQGEWSEDLTAWTLSDILPPQPENIKISNITHSSAVISWTILDGYSISSITIRYKVQGKNEDQHVDVKIKNATITQYQLKGLEPETAYQVDIFAENNIGSSNPAFSHELVTLPESQAPADLGGGKMLL
Kd: 2.5 nM | koff: 0.0011 s⁻¹
